The target in this experiment is T1, hemagglutinin (HA) of influenza A/H1N1, in viral protein preparations (Influenza A virus (H1N1); …, UniProt C3W5X2).
T1 construct: source: viral protein preparations from A/H1N1
The experiment is described as follows: ELISA. Background: An ELISA detects its analyte on a solid surface through an enzyme-linked reagent.

B1: VHH 2-C10 (VHH)
VHH: QVQLQESGGGLVQAGGSLRLSCVASGRTFSSYSMAWFRQAPGKEREFVASISWSDINGYYPDSVKGRFTISRDNAKNTVYLQMNSLKPEDTAVYYCAARLGLSNYHYHRVSDYDVWGQGTQVTVSS
notes: also called native VHH 2-C10; source: E. coli TOP10F', culture medium, purified (Ni-NTA agarose)
Consider B1, for which the binding result was “binds”.

For the origin of these results see publication PMC12101271 (Antibodies, 2025).
